Consider 22 molecules from patent US20210395381A1 (OSSIANIX, published 2021).

Assay [1] has as its target T1, recombinant human TfR-1 (human, UniProt P02786 89-760).
T1 construct: extracellular domain; also called hTfR1; human transferrin receptor-1
Nature of the assay: phage ELISA. The procedure:
(§1) After the third round of selection, instead of pooling bacterial colonies, individual phagemid clones were grown in 1 ml of 2TY medium containing glucose and ampicillin in 96-well blocks and used to rescue the phages. After an overnight culturing, bacteria were spun down and an aliquot of the phage supernatant was sent for Sanger sequencing (Genewiz); VNAR CDR3 sequences were identified using BioEdit (a sequence alignment editor). Another aliquot was blocked with 2.5% milk for phage ELISAs. High-binding ELISA plates (Greiner) were coated with 1 μg/ml of recombinant human or mouse TfR-1. The plates were then blocked with 2.5% milk in PBST. Blocked phages were added to the blocked plates and the VNAR-phage clones binding to the antigens were detected with HRP-labelled anti-M13 coat protein antibodies (Sino Biological), and chromogenic TMB substrate (KLM)
T1 sequence (P02786 89-760): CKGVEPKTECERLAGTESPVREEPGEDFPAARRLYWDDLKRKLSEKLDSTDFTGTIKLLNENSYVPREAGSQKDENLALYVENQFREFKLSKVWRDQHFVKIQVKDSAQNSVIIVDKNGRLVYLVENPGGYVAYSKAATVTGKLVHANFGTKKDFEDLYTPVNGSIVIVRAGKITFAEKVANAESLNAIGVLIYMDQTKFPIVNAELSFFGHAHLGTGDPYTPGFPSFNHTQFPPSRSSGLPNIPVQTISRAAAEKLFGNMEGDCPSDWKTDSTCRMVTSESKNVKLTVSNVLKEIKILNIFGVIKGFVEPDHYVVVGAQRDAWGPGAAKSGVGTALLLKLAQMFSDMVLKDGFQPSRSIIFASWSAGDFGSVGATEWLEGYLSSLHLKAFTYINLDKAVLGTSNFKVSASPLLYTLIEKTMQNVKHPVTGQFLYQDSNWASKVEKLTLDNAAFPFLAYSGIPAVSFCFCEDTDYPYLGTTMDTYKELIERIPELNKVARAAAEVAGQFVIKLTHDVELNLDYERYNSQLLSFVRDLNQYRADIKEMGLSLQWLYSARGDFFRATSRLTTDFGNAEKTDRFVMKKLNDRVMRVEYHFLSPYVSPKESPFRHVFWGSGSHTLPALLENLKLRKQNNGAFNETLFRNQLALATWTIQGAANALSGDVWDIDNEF

In assay [2] the target is T2, recombinant mouse TfR-1 (mouse, UniProt Q62351 89-763).
T2 construct: Bought recombinant protein; also called mTfR1
The experiment in a line: phage ELISA. The method, then: as §1
On the technique in general: ELISA stands for enzyme-linked immunosorbent assay.
T2 sequence (Q62351 89-763 limits assumed): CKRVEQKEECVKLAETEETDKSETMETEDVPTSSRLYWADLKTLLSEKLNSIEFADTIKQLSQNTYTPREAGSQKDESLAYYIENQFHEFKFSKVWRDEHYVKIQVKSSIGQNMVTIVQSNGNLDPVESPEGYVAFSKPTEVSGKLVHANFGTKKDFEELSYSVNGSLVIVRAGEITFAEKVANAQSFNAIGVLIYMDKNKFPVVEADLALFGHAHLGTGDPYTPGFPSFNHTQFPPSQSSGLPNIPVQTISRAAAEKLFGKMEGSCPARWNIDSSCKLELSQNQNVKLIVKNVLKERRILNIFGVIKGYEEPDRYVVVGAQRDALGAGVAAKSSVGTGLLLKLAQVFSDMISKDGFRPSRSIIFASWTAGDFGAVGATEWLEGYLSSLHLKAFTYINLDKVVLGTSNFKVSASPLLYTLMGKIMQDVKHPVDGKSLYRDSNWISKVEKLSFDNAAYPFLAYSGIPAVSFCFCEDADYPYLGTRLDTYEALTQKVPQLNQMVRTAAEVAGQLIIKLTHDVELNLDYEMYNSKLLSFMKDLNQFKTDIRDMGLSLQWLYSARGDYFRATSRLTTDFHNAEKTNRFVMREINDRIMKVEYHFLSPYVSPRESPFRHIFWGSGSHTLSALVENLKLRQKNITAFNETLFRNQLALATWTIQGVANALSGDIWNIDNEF

The target of assay [3] is T1, recombinant human TfR-1. Nature of the assay: ELISA titration, large-scale purified VNAR-hFc.
For assay [4], the target named is T2, recombinant mouse TfR-1. Nature of the assay: ELISA titration, large-scale purified VNAR-hFc.
The target of assay [5] is T3, recombinant mouse TfR-1 (mouse, UniProt Q62351 89-763).
T3 construct: Coated at 1 ug/ml for the phage ELISA; also called mTfR1; mouse transferrin receptor-1
The experiment in a line: phage ELISA, VNAR-phage on plate-coated recombinant mouse TfR-1.
T3 sequence (Q62351 89-763 limits assumed): as above

For assay [6], the target named is T4, recombinant human TfR-1 (human, UniProt P02786 89-760).
T4 construct: also called hTfR1; human transferrin receptor-1
The experiment in a line: phage ELISA, VNAR-phage on plate-coated recombinant human TfR-1.
T4 sequence (P02786 89-760 limits assumed): as the sequence (P02786 89-760) above

B1: Clone 4 (VNAR)
VNAR: ARVDQTPQTITKETGESLTINCVLRDSNCALPSTYWYRKKSGSTNEESISKGGRYVETVNSGSKSFSLRINDLTVKDSGTYRCKVMSQEVRWQMTCKIVVMDVYGGGTVVTVNA
notes: VNAR on phage
In the case of B1, the binding result with recombinant human TfR-1 [1] and with recombinant mouse TfR-1 [2] was “binds” in each case.

B2: Clone 5 (VNAR)
VNAR: ARVDQTPQTITKETGESLTINCVLRDSNCALSSTLWYRTKSGSRNEESISKGGRYVETVNSGSKSFSLRINDLTVKDSGTYRCNVQQYDCIASFDVYGDGTAVTVNA
notes: VNAR on phage
With B2, the binding result with recombinant human TfR-1 [1] and in the assay with recombinant mouse TfR-1 [2] was “binds” each time.

B3: Clone 6 (VNAR)
VNAR: ARVDQTPQTVTKETGESLTINCVLRDSNCALSSTLWYRTKSGSRNEESISKGGRYVETVNSGSKSFSLRINDLTVEDSGTYRCNVCSNYCPIKDDVYGDGTAVTVNA
notes: VNAR on phage
In the case of B3, the binding result in the assay with recombinant human TfR-1 [1] and with recombinant mouse TfR-1 [2] was “binds” each time.

B4: Clone 8.5 VNAR-hFc fusion (Fc fusion, human, not shown: small tags and cut ends)
chain (part 1 of 2): ARVDQTPQTITKETGESLTINCVLRDSNCALPSTYWYRKKSGSTNEESISKGGRYVETVNSGSKSFSLRINDLTVEDSGTYRCKVIAQLGWWLRGCNYRKHDVYGDGTAVTVNA
chain (part 2 of 2): DKTHTCPPCPAPPVAGPSVFLFPPKPKDTLMISRTPEVTCVVVDVSHEDPEVKFNWYVDGVEVHNAKTKPREEQYNSTYRVVSVLTVLHQDWLNGKEYKCKVSNKGLPSSIEKTISKAKGQPREPQVYTLPPSRDELTKNQVSLTCLVKGFYPSDIAVEWESNGQPENNYKTTPPVLDSDGSFFLYSKLTVDKSRWQQGNVFSCSVMHEALHNHYTQKSLSLSPGK
notes: domain: Fc (CH2 and CH3); also called the variant
A word on the EC50: it is the concentration that produces a half-maximal response. In the case of B4, the EC50 is 27 nM with recombinant human TfR-1 [3] and 47 nM in the assay with recombinant mouse TfR-1 [4]. Also, the “fold difference of EC50 against parental Clone 8” value with recombinant human TfR-1 [3] and with recombinant mouse TfR-1 [4] was over 25 fold in each case.

B5: Clone 8.149 (VNAR)
VNAR: ARVDQTPQTITKETGESLTINCVLRDSNCALPSTYWYRKKSGSTNEESISKGGRYVETVNSGSKSFSLRINDLTVEDSGTYRCKVIAQLSSILRGCNYHPHDVYGDGTAVTVNA
B5: the “phage ELISA A450” value in the assay with recombinant mouse TfR-1 [5] came to 0.045 A450; in the assay with recombinant human TfR-1 [6], 0.052 A450.

B6: Clone 8.153 (VNAR)
VNAR: ARVDQTPQTITKETGESLTINCVLRDSNCALPSTYWYRKKSGSTNEESISKGGRYVETVNSGSKSFSLRINDLTVEDSGTYRCKVIAQLAFGLRGCNYRKHDVYGDGTAVTVNA
B6: the entries for the “phage ELISA A450” value with recombinant mouse TfR-1 [5] and in the assay with recombinant human TfR-1 [6] were 0.044 A450 and 0.048 A450, respectively.

B7: Clone 8.160 (VNAR)
VNAR: ARVDQTPQTITKETGESLTINCVLRDSNCALPSTYWYRKKSGSTNEESISKGGRYVETVNSGSKSFSLRINDLTVEDSGTYRCKVIAQLSSILRGCFPQKHDVYGDGTAVTVNA
Consider B7, for which the “phage ELISA A450” value with recombinant mouse TfR-1 [5] is 0.043 A450; with recombinant human TfR-1 [6] it was 0.049 A450.

B8: Clone 8.154 (VNAR)
VNAR: ARVDQTPQTITKETGESLTINCVLRDSNCALPSTYWYRKKSGSTNEESISKGGRYVETVNSGSKSFSLRINDLTVEDSGTYRCKVIAQLSSILRGCGGSKHDVYGDGTAVTVNA
Turning to B8, the “phage ELISA A450” value with recombinant mouse TfR-1 [5] was 0.044 A450; with recombinant human TfR-1 [6], 0.055 A450.

B9: Clone 8.150 (VNAR)
VNAR: ARVDQTPQTITKETGESLTINCVLRDSNCALPSTYWYRKKSGSTNEESISKGGRYVETVNSGSKSFSLRINDLTVEDSGTYRCKVIAQLSSILRGCNYNQQDVYGDGTAVTVNA
Turning to B9, the “phage ELISA A450” value is 0.045 A450 with recombinant mouse TfR-1 [5] and 0.058 A450 with recombinant human TfR-1 [6].

B10: Clone 8.162 (VNAR)
VNAR: ARVDQTPQTITKETGESLTINCVLRDSNCALPSTYWYRKKSGSTNEESISKGGRYVETVNSGSKSFSLRINDLTVEDSGTYRCKVIAQLSSNRNGCNYRKHDVYGDGTAVTVNA
As for B10, the figures for the “phage ELISA A450” value in the assay with recombinant mouse TfR-1 [5] and with recombinant human TfR-1 [6] were 0.042 A450 and 0.055 A450, respectively.

B11: Clone 8.152 (VNAR)
VNAR: ARVDQTPQTITKETGESLTINCVLRDSNCALPSTYWYRKKSGSTNEESISKGGRYVETVNSGSKSFSLRINDLTVEDSGTYRCKVMDQLSNMLRGCNYRKHDVYGDGTAVTVNA
Consider B11, for which the “phage ELISA A450” value amounted to 0.045 A450 with recombinant mouse TfR-1 [5] and 0.059 A450 in the assay with recombinant human TfR-1 [6].

B12: Clone 8.159 (VNAR)
VNAR: ARVDQTPQTITKETGESLTINCVLRDSNCALPSTYWYRKKSGSTNEESISKGGRYVETVNSGSKSFSLRINDLTVEDSGTYRCKVIAQLSSDGQGCNYRKHDVYGDGTAVTVNA
Consider B12, for which the “phage ELISA A450” value came to 0.043 A450 with recombinant mouse TfR-1 [5] and 0.057 A450 with recombinant human TfR-1 [6].

B13: Clone 8.151 (VNAR)
VNAR: ARVDQTPQTITKETGESLTINCVLRDSNCALPSTYWYRKKSGSTNEESISKGGRYVETVNSGSKSFSLRINDLTVEDSGTYRCKVIAQLSSLERGCNYFQFDVYGDGTAVTVNA
Consider B13, for which the “phage ELISA A450” value with recombinant mouse TfR-1 [5] is 0.045 A450; in the assay with recombinant human TfR-1 [6] it was 0.048 A450.

B14: Clone 8.155 (VNAR)
VNAR: ARVDQTPQTITKETGESLTINCVLRDSNCALPSTYWYRKKSGSTNEESISKGGRYVETVNSGSKSFSLRINDLTVEDSGTYRCKVIAQLSSILRGCNYKIADVYGDGTAVTVNA
On to B14, for which the “phage ELISA A450” value with recombinant mouse TfR-1 [5] was found to be 0.044 A450; in the assay with recombinant human TfR-1 [6], 0.053 A450.

B15: Clone 8.156 (VNAR)
VNAR: ARVDQTPQTITKETGESLTINCVLRDSNCALPSTYWYRKKSGSTNEESISKGGRYVETVNSGSKSFSLRINDLTVEDSGTYRCKVIAQLSSQSVGCNYRKHDVYGDGTAVTVNA
For B15, the “phage ELISA A450” value with recombinant mouse TfR-1 [5] is 0.044 A450; with recombinant human TfR-1 [6] it was 0.062 A450.

B16: Clone 8.161 (VNAR)
VNAR: ARVDQTPQTITKETGESLTINCVLRDSNCALPSTYWYRKKSGSTNEESISKGGRYVETVNSGSKSFSLRINDLTVEDSGTYRCKVIAQLSSILRGCIAGKHDVYGDGTAVTVNA
As for B16, the “phage ELISA A450” value with recombinant mouse TfR-1 [5] worked out at 0.043 A450; in the assay with recombinant human TfR-1 [6], 0.048 A450.

B17: Clone 8.157 (VNAR)
VNAR: ARVDQTPQTITKETGESLTINCVLRDSNCALPSTYWYRKKSGSTNEESISKGGRYVETVNSGSKSFSLRINDLTVEDSGTYRCKVIAYRKSIVRGCNYRKHDVYGDGTAVTVNA
With B17, the “phage ELISA A450” value with recombinant mouse TfR-1 [5] was determined as 0.044 A450; with recombinant human TfR-1 [6], 0.048 A450.

B18: Clone 8.158 (VNAR)
VNAR: ARVDQTPQTITKETGESLTINCVLRDSNCALPSTYWYRKKSGSTNEESISKGGRYVETVNSGSKSFSLRINDLTVEDSGTYRCKVIAQLNVILRGCNYRKHDVYGDGTAVTVNA
Regarding B18, the results for the “phage ELISA A450” value in the assay with recombinant mouse TfR-1 [5] and with recombinant human TfR-1 [6] were 0.043 A450 and 0.046 A450, respectively.

B19: Clone 7 (VNAR)
VNAR: ARVDQTPQTITKETGESLTINCVLRDNNCALSSTLWYRTKSGSRNEESISKGGRYVETVNSGSKSFSLRINDLTVEDSGTYRCNVQSWPPGNGWWCDVYGDGTAVTVNA
notes: VNAR on phage
B19: the binding result with recombinant human TfR-1 [1] and with recombinant mouse TfR-1 [2] was “binds” in each case.

B20: Clone 30 (VNAR)
VNAR: ARVDQTPQTITKETGESLTINCVLRDSNCALSSTLWYRTKSGSRNEESISKGGRYVETVNSGSKSFSLKINDLTVEDSGTYRCNVWFADYYWFQYDVYGGGTAVTVNA
notes: VNAR on phage
Turning to B20, the binding result with recombinant human TfR-1 [1] and with recombinant mouse TfR-1 [2] was “binds” in each case.

B21: Clone 9 (VNAR)
VNAR: ARVDQTPQTITKETGESLTINCVLRDSNCALPSTWYRKKSDSTNEESISKGGRYVETVNSGSKSFSLRINDLTVKDSGTYRCKVLYPNCYRCMWGQVTDVYGGGTAVTVNA
notes: VNAR on phage
With B21, the binding result with recombinant human TfR-1 [1] and with recombinant mouse TfR-1 [2] was “binds” throughout.

B22: Clone 31 (VNAR)
VNAR: ARVDQTPQTITKETGESLTINCVLRDSNCALSSTYWYRKKSDSTNEENISKGGRYVETVNSGSKSFSLKINDLTVEDSGTYRCNVQPLFCDLWLDVYGGGTVVTVNA
notes: VNAR on phage
B22: the binding result in the assay with recombinant human TfR-1 [1] and in the assay with recombinant mouse TfR-1 [2] was “binds” throughout.
